This note sets out measurements from article PMC2115722.

The target of the assay is Acanthamoeba actin (Acanthamoeba castellanii). Put plainly: cross-linking.

As to “Acanthamoeba profilin I (natural protein)”, the stoichiometry N (profilin per actin) turned out to be 1.
